# According to patent publication US8129197B2, “Cholesterol loaded insect cell membranes as test proteins” (SOLVO Biotechnológial ZRT., priority 2006, dated 2012):
# T1: mouseBsep (Mus musculus, UniProt Q9QY30)
# T1 sequence (Q9QY30 1-1321): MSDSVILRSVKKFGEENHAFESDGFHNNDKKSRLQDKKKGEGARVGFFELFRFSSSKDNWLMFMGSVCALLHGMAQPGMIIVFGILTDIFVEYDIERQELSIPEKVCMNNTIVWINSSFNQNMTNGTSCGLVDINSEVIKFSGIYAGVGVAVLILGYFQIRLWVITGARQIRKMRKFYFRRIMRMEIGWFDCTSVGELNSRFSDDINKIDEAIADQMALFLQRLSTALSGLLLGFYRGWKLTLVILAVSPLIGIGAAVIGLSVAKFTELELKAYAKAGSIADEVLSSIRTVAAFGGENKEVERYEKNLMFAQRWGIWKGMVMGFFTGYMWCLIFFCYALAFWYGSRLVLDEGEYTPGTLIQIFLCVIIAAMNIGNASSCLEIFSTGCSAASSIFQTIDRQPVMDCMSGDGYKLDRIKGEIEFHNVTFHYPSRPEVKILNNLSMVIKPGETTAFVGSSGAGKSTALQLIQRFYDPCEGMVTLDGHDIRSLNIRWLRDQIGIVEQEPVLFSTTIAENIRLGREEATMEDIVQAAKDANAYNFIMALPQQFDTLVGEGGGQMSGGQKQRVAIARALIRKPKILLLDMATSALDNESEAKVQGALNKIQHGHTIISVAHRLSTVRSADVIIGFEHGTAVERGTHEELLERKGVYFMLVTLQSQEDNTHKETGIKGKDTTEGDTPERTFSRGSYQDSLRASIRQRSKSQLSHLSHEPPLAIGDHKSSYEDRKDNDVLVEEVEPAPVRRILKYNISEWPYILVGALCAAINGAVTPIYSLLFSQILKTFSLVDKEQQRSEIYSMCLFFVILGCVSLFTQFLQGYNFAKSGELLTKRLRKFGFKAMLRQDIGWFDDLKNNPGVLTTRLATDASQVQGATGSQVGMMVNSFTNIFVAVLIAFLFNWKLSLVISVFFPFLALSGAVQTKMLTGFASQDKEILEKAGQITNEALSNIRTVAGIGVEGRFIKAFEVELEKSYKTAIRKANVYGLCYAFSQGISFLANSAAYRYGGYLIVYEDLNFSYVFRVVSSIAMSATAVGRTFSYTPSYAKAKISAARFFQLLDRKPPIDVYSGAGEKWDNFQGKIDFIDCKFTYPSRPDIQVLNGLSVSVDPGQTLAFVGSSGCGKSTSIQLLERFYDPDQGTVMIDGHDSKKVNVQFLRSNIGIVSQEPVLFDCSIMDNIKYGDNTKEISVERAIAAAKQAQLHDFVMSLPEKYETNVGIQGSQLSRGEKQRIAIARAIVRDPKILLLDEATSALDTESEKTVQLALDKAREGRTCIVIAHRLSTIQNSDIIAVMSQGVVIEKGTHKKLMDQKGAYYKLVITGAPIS
# B1: ratBsep (Rattus norvegicus) (protein)
# chain: MSDSVILRSVKKFGEENHAFESDGSHNNDKKSRLQDKMKEGDIRVGFFELFRFSSSKDIWLMLMGGVCALLHGMAQPGILIIFGIMTDIFIKYDIERQELEIPGKACVNNTIVWINSSFHQNMTNGTVCGLVDIESEMIKFSGIYAGVGMTVLILGYFQIRLWVITGARQIRRMRKIYFRRIMRMEIGWFDCTSVGELNSRFADDIEKINDAIADQLAHFLQRMSTAMCGLLLGFYRGWKLTLVILAVSPLIGIGAAVIGLSIAKFTELELKAYAKAGSIADEVLSSIRTVAAFGGENKEVERYEKNLVFAQRWGIWKGMVMGFFTGYMWCLIFFCYALAFWYGSTLVLDEEEYTPGTLVQIFLCVILAAMNIGHASSCLEIFSTGCSAATNIFQTIDRQPVIDCMSGDGYKLDRIKGEIEFHNVTFHYPSRPDVKILDNLSMVIKPGETTALVGSSGAGKSTALQLIQRFYDPCEGMVTLDGHDIRSLNIRWLRDQIGIVEQEPVLFSTTIAENIRFGREDATMEDIVQAAKDANAYNFIMALPQQFDTLVGEGGGQMSGGQKQRVAIARALIRNPKILLLDMATSALDNESEARVQEALNKIQHGHTIISVAHRLSTVRAADVIIGFEHGVAVERGTHEELLERKGVYFMLVTLQSQGDNAHKETSIMGKDATEGGTLERTFSRGSYRDSLRASIRQRSKSQLSLLTHDPPLAVADHKSSYKDSKDNDVLVEEVEPAPVRRILKYNIPEWHYILVGSLSAAINGAVTPIYSLLFSQLLGTFSLLDKEQQRSEIHSMCLFFVILGCVSIFTQFLQGYTFAKSGELLTKRLRKFGFKAMLGQDIGWFDDLRNNPGVLTTRLATDASQVQGATGSQVGMMVNSFTNIIAALLIAFFFSWKLSLIITIFFPFLALSGAVQTKMLTGFASQDKQALEKAGQITSEALSNIRTVAGIGVEGRFIKAFEVELQTSYKTAVRKANIYGLCFAFSQGIAFLANSAAYRYGGYLIAYEGLGFSHVFRVVSSVALSATAVGRTFSYTPSYAKAKISAARFFQLLDRKPPINVYSEAGEKWDNFQGKIDFIDCKFTYPSRPDIQVLNGLSVSVNPGQTLAFVGSSGCGKSTSIQLLERFYDPDQGTVMIDGHDSKKVNIQFLRSNIGIVSQEPVLFDCSIMDNIKYGDNTKEISVERAIAAAKQAQLHDFVMSLPEKYETNVGIQGSQLSRGEKQRIAIARAIVRDPKILLLDEATSALDTESEKTVQTALDKAREGRTCIVIAHRLSTIQNSDIIAVVSQGVVIEKGTHEKLMAQKGAYYKLVITGAPIS
# B2: mouseBsep (Mus musculus) (protein)
# chain: T1 sequence (Q9QY30 1-1321)
# B3: humanBSEP (Homo sapiens) (protein)
# chain: MSDSVILRSIKKFGEENDGFESDKSYNNDKKSRLQDEKKGDGVRVGFFQLFRFSSSTDIWLMFVGSLCAFLHGIAQPGVLLIFGTMTDVFIDYDVELQELQIPGKACVNNTIVWTNSSLNQNMTNGTRCGLLNIESEMIKFASYYAGIAVAVLITGYIQICFWVIAAARQIQKMRKFYFRRIMRMEIGWFDCNSVGELNTRFSDDINKINDAIADQMALFIQRMTSTICGFLLGFFRGWKLTLVIISVSPLIGIGAATIGLSVSKFTDYELKAYAKAGVVADEVISSMRTVAAFGGEKREVERYEKNLVFAQRWGIRKGIVMGFFTGFVWCLIFLCYALAFWYGSTLVLDEGEYTPGTLVQIFLSVIVGALNLGNASPCLEAFATGRAAATSIFETIDRKPIIDCMSEDGYKLDRIKGEIEFHNVTFHYPSRPEVKILNDLNMVIKPGEMTALVGPSGAGKSTALQLIQRFYDPCEGMVTVDGHDIRSLNIQWLRDQIGIVEQEPVLFSTTIAENIRYGREDATMEDIVQAAKEANAYNFIMDLPQQFDTLVGEGGGQMSGGQKQRVAIARALIRNPKILLLDMATSALDNESEAMVQEVLSKIQHGHTIISVAHRLSTVRAADTIIGFEHGTAVERGTHEELLERKGVYFTLVTLQSQGNQALNEEDIKDATEDDMLARTFSRGSYQDSLRASIRQRSKSQLSYLVHEPPLAVVDHKSTYEEDRKDKDIPVQEEVEPAPVRRILKFSAPEWPYMLVGSVGAAVNGTVTPLYAFLFSQILGTFSIPDKEEQRSQINGVCLLFVAMGCVSLFTQFLQGYAFAKSGELLTKRLRKFGFRAMLGQDIAWFDDLRNSPGALTTRLATDASQVQGAAGSQIGMIVNSFTNVTVAMIIAFSFSWKLSLVILCFFPFLALSGATQTRMLTGFASRDKQALEMVGQITNEALSNIRTVAGIGKERRFIEALETELEKPFKTAIQKANIYGFCFAFAQCIMFIANSASYRYGGYLISNEGLHFSYVFRVISAVVLSATALGRAFSYTPSYAKAKISAARFFQLLDRQPPISVYNTAGEKWDNFQGKIDFVDCKFTYPSRPDSQVLNGLSVSISPGQTLAFVGSSGCGKSTSIQLLERFYDPDQGKVMIDGHDSKKVNVQFLRSNIGIVSQEPVLFACSIMDNIKYGDNTKEIPMERVIAAAKQAQLHDFVMSLPEKYETNVGSQGSQLSRGEKQRIAIARAIVRDPKILLLDEATSALDTESEKTVQVALDKAREGRTCIVIAHRLSTIQNADIIAVMAQGVVIEKGTHEELMAQKGAYYKLVTTGSPIS
# Key:
# mouseBsep = biological target: T1, mouseBsep; experiment: Vanadate sensitive ATPase assay, mouseBsep Sf9 membrane vesicles; format: biochemical; design: made in house; host or cells: baculovirus infected Sf9 (Spodoptera frugiperda) cells
# Description: The samples treated with cholesterol@RAMEB complex were compared with untreated vesicles.
# [1] = substrate: C[C@H](CCC(=O)NCCS(=O)(=O)O)[C@H]1CC[C@H]2[C@@H]3[C@H](O)C[C@@H]4C[C@H](O)CC[C@]4(C)[C@H]3C[C@H](O)[C@]12C; experiment: cells, lysate or membranes named
molecule,measurement,setting,value
C[C@H](CCC(=O)NCCS(=O)(=O)O)[C@H]1CC[C@H]2[C@@H]3[C@H](O)C[C@@H]4C[C@H](O)CC[C@]4(C)[C@H]3CC[C@]12C [taurochenodeoxycholate],Vanadate sensitive ATPase activity in the presence of the substrate,"mouseBsep; cholesterol loaded mouseBsep vesicles, basal 4.7",39 nmol Pi/mg prot/min
same,Vanadate sensitive ATPase activity in the presence of the substrate,"mouseBsep; untreated mouseBsep vesicles, basal 37",64 nmol Pi/mg prot/min
B1,Km,[1]; other: ratBsep-Sf9 CTRL,2.203 µM
B2,Km,[1]; other: mouseBsep-Sf9 CTRL,6.798 µM
B3,Km,[1]; other: humanBSEP-Sf9 CTRL,15.03 µM
